Measured values taken from the supplement of paper PMC9170038.

System: MS2 coat protein
Experiment: apparent KD of MS2 coat protein; designed switch direction (-1 OFF switch, 1 ON switch): -1; higher = weaker reporter binding
Procedure, shortened: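 SNAP-549-labelled MS2 coat protein was titrated, doubling from 0.7 or 1.5 nM to 3 µM, over designed RNA switches transcribed on Illumina chips by stalled E. coli RNA polymerase. Runs were done without input, with 200 uM small-molecule ligand, or with an oligonucleotide input. Apparent KD is the per-design median over clusters of curve-fitted normalised fluorescence.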

[1] = input ligand: microRNA oligo, concentration not stated
[2] = Eterna round: R95, input ligand: microRNA oligo, concentration not stated
[3] = Eterna round: R95, input ligand: FMN 200 uM
[4] = Eterna round: R95, input ligand: none

Sequence	apparent KD of MS2 coat protein (input ligand: FMN 200 uM) [nM]	apparent KD of MS2 coat protein (input ligand: none) [nM]	apparent KD of MS2 coat protein [2] [nM]	other results
UACAUGAGGAUCACCCAUGUUUUGUCGUGUAUGGUAUUUAUCUAGGAUAUCAAUCUAUUUAGUUAUGAGAAGGAGAAUAUUAAU [JMF's solution 54] (Eterna round: R96, puzzle: Exclusion NG 3)	39.1	37.8	–	apparent KD of MS2 coat protein [1]: 29.9 nM
UGCCGGGCGUGAUCGGAUGACAUGAGGAUCACCCAUGUGCCAGCACAUAAUACCGCUCGCGGUUUUUUGCUCGUCAU [Eternabot (Original) Solution 12] (Eterna round: R97, puzzle: Sensor, turn-off variant 1)	221	250	–	–
UAAUUGAUUAAUAAAUUAUACAUGAGGAUCACCCAUGUAGAUCCUACGUGCCAUUUAAGUAGCUCGUCUUAUUAUUA [Sensor-V1 #64] (Eterna round: R97, puzzle: Sensor, turn-off variant 1)	142	228	–	–
UGAGCAUGAGGAUAUACAAGGCGACCGUGAGGUCGAGGGUUACAUGAGGAUCACCCAUGUAGAAGGCAUGUUCU [jl-ex2-4.10] (Eterna round: R97, puzzle: Exclusion 2)	514	48.3	–	–
GUGUACGGAGGAUAUAUGUGGGCAGGCUGACCUGCAGCUUCACAUGAGGAUCACCCAUGUAGAAGGCUGUACAC [Mat - Exclusion 2 - Mod of Hyphema - D99] (puzzle: Exclusion 2)	–	–	20.7	–
GAGAUGUGAGGAUAUCUAGACCGCGGCAGAGCUGCGGUCCGAGAGAAGGCACAUGAGGAUCACCCAUGUGAUGA [Beriesan] (puzzle: Exclusion 4)	–	–	47.3	–
GAUGAGGUAGGAUAUACGAGAAGAUAGGGUAGAGAGAGAACACAUGAGGAUCACCCAUGUAGAAGGACCAGUAG [Mat - Exclusion 2 - Mod of my Tesla design - D74] (puzzle: Exclusion 2)	–	–	21.1	apparent KD of MS2 coat protein [3]: 48.9 nM; apparent KD of MS2 coat protein [4]: 21.4 nM
AAGCCUCUUGUCAGGAUAUCUGUCGGUCCUCCAAGAGAGAAGGGACAUGAGGAUCACCCAUGUAAGCCCAGGGA [Qubere] (puzzle: Brourd's mod of Exclusion 4)	–	–	13.5	–
CAGUACAGAGGAUAUACAUGAGGAUCACCCAUGUGUAGCAGCUAGGAGACUAGCGCAUGUAGAAGGCUGUACUG [jl-ex3-4.31 salish99 mod] (Eterna round: R97, puzzle: Exclusion 3)	129	21.3	–	–
GACAUGAGGAUCACCCAUGUAACCAGGGCAAUUCUCGAAAUGGAGGAUAUGAAUCUUAAUUAGGUUCAGAAGGCCAGAAGGCUA [Eternabot solution 29] (Eterna round: R96, puzzle: Exclusion NG 3)	784	206	–	apparent KD of MS2 coat protein [1]: 194 nM
AGAUCACAUGAGGAUCACCCAUGUCAGGAUAUGAUACUAUGUACUUCGGUACAUAGUAUCAGAAGGGAUAUGAA [Ex1-3: 67] (puzzle: Exclusion 1)	–	–	109	–
AGCAUGUAAGGAUAUGUAACGCGGCGUUCAUUCGUCGUCCCACAGAAGGUACAUGAGGAUCACCCAUGUGCUCC [Veorla] (puzzle: Exclusion 4)	–	–	39	–
ACAUGUCUUGUAGGAUAUAGUUGACAUGAGGAUCACCCAUGUUGAUUCAUGUCUAUGGAAACGGACUAGAAGGACGAGAAUAUG [Ex NG2 #17] (Eterna round: R96, puzzle: Exclusion NG 2)	50.5	25.9	–	apparent KD of MS2 coat protein [1]: 25.3 nM
GGUGAAGCAGGAUAUGUAUCGGCAUACAUGAGGAUCACCCAUGUCAUGUAGAUACCGCAUAUAGAAGGGCUUCACC [Exclusion 5 (FMN-MS2 slide v.5)] (Eterna round: R97, puzzle: Exclusion 5)	41.1	16.9	–	–
UAUAUGUCAGGAUAUUAGUAGUAAAUGAAUAAAAUUAUUACUGAGAAGGGACAUGAGGAUCACCCAUGUGCCUC [Mat - Exclusion 4 - Eli Mod - D24] (Eterna round: R97, puzzle: Exclusion 4)	387	37.4	–	–
UAAGAAUGCAAGGAUAUGGCUAGGUAAAACAUGUCAGAAGGUGCUACAUGAGGAUCACCCAUGUGUCUCGUGCG [Eternabot (L1) Solution 2] (Eterna round: R97, puzzle: Exclusion 6)	75.8	64.3	–	–
AAUUAAUGAGGAUAUACAGUGUAAAACAUGAGGAUCACCCAUGUUCUUCAAUUAGUAUUUGUAGAAGGCAUAGGUA [JR_Ex5_Sub093] (Eterna round: R97, puzzle: Exclusion 5)	32	61.4	–	–
ACAUGAGGAUCACCCAUGUCAGGCUGGUCCGCUCCGGCUGUUGAGGAUAUAGCACGGUGUCCGCGCUAGAAGGUGAGGGCCGGC [Aenatbe mod 31] (Eterna round: R96, puzzle: Exclusion NG 3)	24.8	26.4	–	apparent KD of MS2 coat protein [1]: 15.7 nM

Sequence	apparent KD of MS2 coat protein (input ligand: FMN 200 uM) [nM]	apparent KD of MS2 coat protein (input ligand: none) [nM]	apparent KD of MS2 coat protein [2] [nM]	other results
AGUAUGUGAGGAUAUUUUUCGUCCGGUAGGAUACUACAGAGAAAGAAGGCACAUGAGGAUCACCCAUGUGAGAC [Eternabot (L1) Solution 55] (Eterna round: R97, puzzle: Exclusion 4)	48.3	20.1	–	–
CUGGUGUGAGGAUAUCAAAGACCUCGGGAUAGUAGCGAGGAUGAGAAGGCACAUGAGGAUCACCCAUGUAACAA [Edmaer] (puzzle: Exclusion 4)	–	–	21.2	–
AAAGCGUCAGGAUAUCCAAUAUAUGACAUGAGGAUCACCCAUGUUUCCACUCGUACCUCCGGAGAAGGGACAAAUA [Ex5 #86] (Eterna round: R97, puzzle: Exclusion 5)	32.5	38.1	–	–
ACAAGCUUUUUGUUCGUCUUAUACACUCCUAAGAGGACAACAUGAGGAUCACCCAUGUAACAAAGACGGACUCAUGU [Sesor Array 11 - Jieux - Sensor v3, turn-off variant 2] (puzzle: Sensor v3, turn-off variant 2)	–	–	129	apparent KD of MS2 coat protein [3]: 17.7 nM; apparent KD of MS2 coat protein [4]: 12 nM
UCAUACGUUGAGGAUAUGUCAGUUAGUAUAUUUACAGAAGGCGAUACAUGAGGAUCACCCAUGUUUAUGGGCAU [Ex-6 Malc#4] (puzzle: Exclusion 6)	–	–	225	–
GCCAGAGCAGGAUAUUCAAUAUUCCACAUGAGGAUCACCCAUGUCCAGCGAAAGCUGGAGGGAGAAGGGCUCUGGC [Fiskers Ex 5 - 8] (puzzle: Exclusion 5)	–	–	43.6	apparent KD of MS2 coat protein [3]: 27.3 nM; apparent KD of MS2 coat protein [4]: 56.3 nM
CAUUAUUAUCGAGGAUAUCCUAUUGAAAUUCUGGGAGAAGGCGGACUCAACAUGAGGAUCACCCAUGUGGGACGGAUGCUAGGC [salish99_exng1_r04_601] (Eterna round: R96, puzzle: Exclusion NG 1)	14.2	19.3	–	apparent KD of MS2 coat protein [1]: 15.6 nM
GAUUAUGCGAGCUUUAGGGACAUGAGGAUCACCCAUGUUCGUCUUAUUGGUCUGAGUACACUGACAUACCUAAAUCU [JMF 63] (puzzle: Sensor v3, turn-off variant 1)	–	–	15.9	apparent KD of MS2 coat protein [3]: 13.3 nM; apparent KD of MS2 coat protein [4]: 12.8 nM
GCCUGAGCAGGAUAUUCAAUAAUUCACAUGAGGAUCACCCAUGUCCAGCGAAAGCUAGGAGGAGAAGGGCUCAGGC [Mat - Exclusion 5 - Eli mod - D86] (puzzle: Exclusion 5)	–	–	16.5	apparent KD of MS2 coat protein [3]: 18.3 nM; apparent KD of MS2 coat protein [4]: 17.8 nM
GUUAAGUGAGGAUAUGGUGAGUAGUGCCUGAGCGCUGCUCACCAGAAGGCACAUGAGGAUCACCCAUGUAUAGC [JL-ex4-2.06 denovo] (puzzle: Exclusion 4)	–	–	15.2	–
CAGUACUGAGGAUAUACAUGAGGAUCACCCAUGUGUGUGAGUUUUGGAUGAAUGUUAUGUAGAAGGCGGUGCUG [JR_Ex3_Sub036] (Eterna round: R97, puzzle: Exclusion 3)	179	466	–	–
AGCUAGUCAGGAUAUUCUAAUAAUUACAUGAGGAUCACCCAUGUGAAGAGACAAGGGUGUGAAGAAGGGACUAGCG [Omei Ex5 A1] (Eterna round: R97, puzzle: Exclusion 5)	188	600	–	–
GGAUAAAAGUCAGGAUAUACGUAUCACUAACGAGUAGAAGGGACACAUGAGGAUCACCCAUGUGAGUUCUCAAUAAGAAACACG [Prohibition 62 - Jieux - Exclusion NG 1] (Eterna round: R96, puzzle: Exclusion NG 1)	13.8	14.9	–	apparent KD of MS2 coat protein [1]: 12.2 nM
CAGUACUGAGGAUAUACAUGAGGAUCACCCAUGUGUCCCAGCUAGGAAACUAGCAAAAGUAGAAGGCAGUACUG [828 mod 2 m4] (Eterna round: R97, puzzle: Exclusion 3)	622	28.1	–	–
CGCUGGACAGGAUAUGUUCUUGGGCACUUGAGGAUCACCCAAGUCAUCAAGAACUCAGGCACAGAAGGGUUUAUGG [salish99_ex5_r4_018] (Eterna round: R97, puzzle: Exclusion 5)	41.5	18.9	–	–
AUAAUGUAAGGAUAUCAGUCGUACAGCUUCGGCUGUACGACUGAGAAGGUACAUGAGGAUCACCCAUGUGGUCA [E4/9-A1] (Eterna round: R97, puzzle: Exclusion 4)	52.2	886	–	–
AGAUCACAUGAGGAUCACCCAUGUCAGGAUAUGAUACUAUGUACUUCGGUACAUAGUAUCAGAAGGGACUUAAA [Ex1-3: 70] (puzzle: Exclusion 1)	–	–	101	–
